From PMC8421216 (Nucleic Acids Research, 2020) come the findings set out here.

Series [1] has as its target T1, Pum-HD (Drosophila melanogaster, UniProt P25822 1093-1426).
T1 sequence: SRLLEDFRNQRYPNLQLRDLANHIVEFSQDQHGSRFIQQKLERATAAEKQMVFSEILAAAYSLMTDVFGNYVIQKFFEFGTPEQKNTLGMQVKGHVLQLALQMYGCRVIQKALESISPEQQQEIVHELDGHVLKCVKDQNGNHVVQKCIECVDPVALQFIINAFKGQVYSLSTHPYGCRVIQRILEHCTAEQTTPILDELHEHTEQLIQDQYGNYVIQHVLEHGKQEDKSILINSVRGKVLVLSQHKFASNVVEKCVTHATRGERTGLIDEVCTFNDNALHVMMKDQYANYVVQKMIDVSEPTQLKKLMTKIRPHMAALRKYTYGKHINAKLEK
Briefly: ITC.

In series [2] the target is T1, Pum-HD. The series can be described thus: ITC. This is another data set of the same source. (Isothermal titration calorimetry measures the heat released or taken up as one component is titrated into another.)
The target of series [3] is T2, HD domain of Pumilio (Pum-HD) (Drosophila, UniProt P25822 1093-1426).
T2 sequence (looked up): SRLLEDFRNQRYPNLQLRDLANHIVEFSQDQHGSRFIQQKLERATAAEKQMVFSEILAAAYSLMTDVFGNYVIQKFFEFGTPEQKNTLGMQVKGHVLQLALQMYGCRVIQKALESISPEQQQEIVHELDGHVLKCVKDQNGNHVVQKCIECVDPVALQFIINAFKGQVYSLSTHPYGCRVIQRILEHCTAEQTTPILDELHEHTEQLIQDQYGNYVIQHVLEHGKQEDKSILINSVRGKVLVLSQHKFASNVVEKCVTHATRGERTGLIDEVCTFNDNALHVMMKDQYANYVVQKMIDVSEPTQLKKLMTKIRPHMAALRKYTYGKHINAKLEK
Briefly: SEC + SEC-MALS. For orientation: SEC sorts molecules by how far they enter the pores of the column.

For series [4], the target named is T1, Pum-HD. The series can be described thus: ITC. The source holds these as a separate data set.
In series [5] the target is T1, Pum-HD. Briefly: ITC. The source holds these as a separate data set.
For series [6], the target named is T3, Brat-NHL (Drosophila melanogaster, UniProt Q8MQJ9 756-1037).
T3 sequence: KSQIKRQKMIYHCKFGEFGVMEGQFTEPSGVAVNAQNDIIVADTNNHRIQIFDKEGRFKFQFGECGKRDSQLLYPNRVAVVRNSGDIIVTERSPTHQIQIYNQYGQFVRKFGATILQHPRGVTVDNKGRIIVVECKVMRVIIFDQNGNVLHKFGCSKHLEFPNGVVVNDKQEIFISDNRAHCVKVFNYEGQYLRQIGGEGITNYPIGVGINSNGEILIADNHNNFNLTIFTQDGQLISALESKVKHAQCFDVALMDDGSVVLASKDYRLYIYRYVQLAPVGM
Briefly: ITC.

In series [7] the target is T3, Brat-NHL. The series can be described thus: ITC. The source holds these as a separate data set.
Series [8] concerns the target T1, Pum-HD. Briefly: ITC. The source holds these as a separate data set.
Series [9] has as its target T3, Brat-NHL. The series can be described thus: ITC. The source holds these as a separate data set.
For series [10], the target named is T1, Pum-HD. Briefly: ITC. The source holds these as a separate data set.
Series [11] concerns the target T1, Pum-HD. Briefly: ITC. The source holds these as a separate data set.
In series [12] the target is T3, Brat-NHL. The series can be described thus: ITC. The source holds these as a separate data set.
The target in the next series is T4, Nanos-ZnF (Drosophila melanogaster, UniProt P25724 301-392).
T4 sequence: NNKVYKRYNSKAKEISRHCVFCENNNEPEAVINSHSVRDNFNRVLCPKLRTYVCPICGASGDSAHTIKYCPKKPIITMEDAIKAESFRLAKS
Briefly: ITC.

Series [13] addresses T1, Pum-HD. Briefly: ITC. The source holds these as a separate data set.
Series [14] has as its target T5, Pum-HD;Brat-NHL;Nanos-ZnF (Drosophila melanogaster;Drosophila …, UniProt P25822;Q8MQJ9;P25724 1093-1426;756-1037;301-392, ||).
T5 sequence 1: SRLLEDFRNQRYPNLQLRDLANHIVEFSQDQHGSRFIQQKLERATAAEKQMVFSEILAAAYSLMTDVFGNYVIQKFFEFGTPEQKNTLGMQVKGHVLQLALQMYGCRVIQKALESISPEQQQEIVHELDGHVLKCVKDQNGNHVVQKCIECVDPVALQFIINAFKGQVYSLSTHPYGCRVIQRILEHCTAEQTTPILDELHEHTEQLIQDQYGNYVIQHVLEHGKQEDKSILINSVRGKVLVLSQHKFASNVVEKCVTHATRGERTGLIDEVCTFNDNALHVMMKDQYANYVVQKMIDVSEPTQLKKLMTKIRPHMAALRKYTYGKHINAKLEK
T5 sequence 2: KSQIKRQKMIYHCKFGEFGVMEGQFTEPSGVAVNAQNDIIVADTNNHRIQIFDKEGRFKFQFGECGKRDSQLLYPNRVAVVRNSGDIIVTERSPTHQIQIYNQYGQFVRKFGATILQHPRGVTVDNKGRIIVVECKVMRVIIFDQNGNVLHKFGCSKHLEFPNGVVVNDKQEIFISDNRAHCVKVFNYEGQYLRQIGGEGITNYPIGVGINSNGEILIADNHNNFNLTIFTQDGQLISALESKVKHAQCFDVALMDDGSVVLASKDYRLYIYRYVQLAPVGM
T5 sequence 3: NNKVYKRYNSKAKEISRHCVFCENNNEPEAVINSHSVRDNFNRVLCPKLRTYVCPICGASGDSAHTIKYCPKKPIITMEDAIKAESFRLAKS
Briefly: SEC-MALLS, NMR, SAXS/SANS.

Series [15] concerns the target T3, Brat-NHL. Briefly: ITC. This is another data set of the same source.
In series [16] the target is T3, Brat-NHL. Briefly: ITC. This is another data set of the same source.

Where two headings read alike, the source gives them in different places.

B1: NRE2 minus BoxB (ssRNA)
RNA: UUGUUGUCGAAAAU
Regarding B1, the Kd (in general, the free concentration of one partner at which half of the binding sites on the other are occupied at equilibrium, for simple one-to-one binding) with Pum-HD [1] was found to be 1 ± 0.02 µM; with Pum-HD [2] it was 1.2 ± 0.08 µM.

B2: ZnF domain of Nanos (Nanos-ZnF) (domain or fragment, Drosophila, UniProt P25724 301-392, looked up)
chain: NNKVYKRYNSKAKEISRHCVFCENNNEPEAVINSHSVRDNFNRVLCPKLRTYVCPICGASGDSAHTIKYCPKKPIITMEDAIKAESFRLAKS
B2: in series [3], the stoichiometry N (in general, the number of molecules, sites or subunits per partner or assembly) was 1.

B3: NRE2 minus BoxA (ssRNA)
RNA: UCGAAAAUUGUACAUAA
In the case of B3, the figures for the Kd with Pum-HD [4] and with Pum-HD [5] were 0.011 ± 0.0006 µM and 0.01 ± 0.0003 µM, respectively.

B4: BoxA (ssRNA)
RNA: UUGUUG
Take B4: the Kd is 0.8 ± 0.2 µM with Brat-NHL [6], 1 ± 0.3 µM in the series with Brat-NHL [7] and 1.1 ± 0.3 µM with Brat-NHL [9]. Also, the binding result in the series with Pum-HD [8] is reported as “no binding”.

B5: BoxB (ssRNA)
RNA: UGUACAUA
B5: the values for the Kd with Pum-HD [10], with Pum-HD [1] and with Pum-HD [2] were 0.0081 ± 0.0017 µM, 0.0066 ± 0.004 µM and 0.002 ± 0.002 µM, respectively.

B6: NRE2 (23-mer) (structured_RNA)
RNA: UUGUUGUCGAAAAUUGUACAUAA
Turning to B6, the Kd was 1.2 ± 0.2 µM with Brat-NHL [6]; 0.002 µM with Pum-HD [11]; 1.4 µM in the series with Brat-NHL [12]; 0.32 ± 0.1 µM in the series with Brat-NHL [7]; 0.015 µM in the series with Pum-HD [13]; 0.9 µM with Brat-NHL [15]. Also, the Kd in the series with Brat-NHL [16] amounted to 0.2 µM; with Brat-NHL [9] it was 0.37 ± 0.1 µM. The results for the binding result (in the series with Nanos-ZnF; in [14]) were “no binding” and “binds”, respectively.

B7: BoxAext (ssRNA)
RNA: UUGUUGUC
In the case of B7, the binding result with Pum-HD [8] is on record as “no binding”.
